Assay results published in publication PMC5519978, “DNA binding drives the association of BRG1/hBRM bromodomains with nucleosomes”.

B1: DNAII (dsDNA)
DNA 1: CGTAGACAGCT
DNA 2: AGCTGTCTACG
B2: DNAIII (dsDNA)
DNA 1: CCTCAATTGGTCGTAG
DNA 2: CTACGACCAATTGAGG
B3: DNAI.FA (dsDNA)
DNA 1: CCTCAATTGGTC
DNA 2: GACCAATTGAGG
B4: DNAII.FA (dsDNA)
DNA 1: CGTAGACAGCTC
DNA 2: GAGCTGTCTACG
B5: DNAI (dsDNA)
DNA 1: CTCAATTGGT
DNA 2: ACCAATTGAG

Columns and labels:
[1] = target: T1, BRG1 AT-BRD (human, UniProt P51532 1434-1569); experiment: NMR titration; 25 C; FA and NMR: 50 mM K phosphate pH 7.0, 50 mM KCl, 0.5 mM EDTA, 1 mM DTT (NMR +10% D2O), 20 C (BRG1 NMR 25 C); EMSA: 150 nM DNA/NCP, 10 mM K phosphate, 10 mM KCl, on ice, 0.2x TBE gel; details: protein: recombinant; tags: pDEST15 or pGEX6p1 (GST); blunt
[2] = target: hBRM-A AT-BRD (human, UniProt P51531 1358-1508); experiment: NMR titration; 1:1 stoichiometric; FA and NMR: 50 mM K phosphate pH 7.0, 50 mM KCl, 0.5 mM EDTA, 1 mM DTT (NMR +10% D2O), 20 C (BRG1 NMR 25 C); EMSA: 150 nM DNA/NCP, 10 mM K phosphate, 10 mM KCl, on ice, 0.2x TBE gel; details: protein: recombinant; tags: pDEST15 (GST) with PreScission site; blunt
[3] = target: T1, BRG1 AT-BRD; experiment: fluorescence anisotropy; FA and NMR: 50 mM K phosphate pH 7.0, 50 mM KCl, 0.5 mM EDTA, 1 mM DTT (NMR +10% D2O), 20 C (BRG1 NMR 25 C); EMSA: 150 nM DNA/NCP, 10 mM K phosphate, 10 mM KCl, on ice, 0.2x TBE gel; details: protein: recombinant; tags: pDEST15 or pGEX6p1 (GST); label: 5' 6-FAM on strand 1; blunt

T1 sequence (P51532 1434-1569): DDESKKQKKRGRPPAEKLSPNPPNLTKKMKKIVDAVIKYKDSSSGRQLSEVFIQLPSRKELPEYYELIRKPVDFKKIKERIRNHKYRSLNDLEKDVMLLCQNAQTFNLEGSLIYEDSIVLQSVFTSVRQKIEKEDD
Sequence of hBRM-A AT-BRD (P51531 1358-1508): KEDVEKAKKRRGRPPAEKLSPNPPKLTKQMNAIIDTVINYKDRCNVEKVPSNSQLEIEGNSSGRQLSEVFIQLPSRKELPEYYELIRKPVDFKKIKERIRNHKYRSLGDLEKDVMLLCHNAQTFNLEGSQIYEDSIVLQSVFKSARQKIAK

Row | Binder | binding result [1] | binding result [2] | Kd [3]
1 | B1 | binds |  | 
2 | B2 |  | binds | 
3 | B3 |  |  | 16 ± 2 µM
4 | B4 |  |  | 40 ± 10 µM
5 | B5 | binds | binds | 
